Each block holds one binder with its values, some of them ahead of it.
Legend:
Assay in all cases: two-hybrid library CCmax;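 further: natural log of median RNA to DNA barcode read ratio; higher means stronger binding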
[1] = target: T1, 4H566-AA; conditions: mean of both orientations
T1 chain: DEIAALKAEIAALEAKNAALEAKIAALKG

[2] = target: T2, 4H335-AA; conditions: mean of both orientations
T2 chain: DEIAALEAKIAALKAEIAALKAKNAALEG

[3] = target: T3, 4H2754-AA; conditions: mean of both orientations
T3 chain: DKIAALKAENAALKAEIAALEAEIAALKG

[4] = target: T4, 4H454-AA; conditions: mean of both orientations
T4 chain: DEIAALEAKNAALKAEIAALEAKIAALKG

[5] = target: T5, 4H794-AA; conditions: mean of both orientations
T5 chain: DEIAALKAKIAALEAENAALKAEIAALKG

[6] = target: T6, 4H3844-AA; conditions: mean of both orientations
T6 chain: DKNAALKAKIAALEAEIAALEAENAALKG

[7] = target: T7, 4H2617-AA; conditions: mean of both orientations
T7 chain: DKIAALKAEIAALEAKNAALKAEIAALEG

[8] = target: T8, 4H906-AA; conditions: mean of both orientations
T8 chain: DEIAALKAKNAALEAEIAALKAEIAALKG

[9] = target: T9, 4H993-AA; conditions: mean of both orientations
T9 chain: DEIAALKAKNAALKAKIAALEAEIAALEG

[10] = target: T10, 4H3921-AA; conditions: mean of both orientations
T10 chain: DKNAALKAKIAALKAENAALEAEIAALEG

[11] = target: T11, 4H3343-AA; conditions: mean of both orientations
T11 chain: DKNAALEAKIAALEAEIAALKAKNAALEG

[12] = target: T12, 4H678-AA; conditions: mean of both orientations
T12 chain: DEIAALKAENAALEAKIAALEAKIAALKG

[13] = target: T13, 4H2949-AA; conditions: mean of both orientations
T13 chain: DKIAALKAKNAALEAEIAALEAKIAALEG

[14] = target: T14, 4H2944-AA; conditions: mean of both orientations
T14 chain: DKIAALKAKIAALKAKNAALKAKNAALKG

[15] = target: T15, 4H2642-AA; conditions: mean of both orientations
T15 chain: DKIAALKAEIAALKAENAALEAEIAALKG

[16] = target: T16, 4H3655-AA; conditions: mean of both orientations
T16 chain: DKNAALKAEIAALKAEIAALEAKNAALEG

[17] = target: T17, 4H3427-AA; conditions: mean of both orientations
T17 chain: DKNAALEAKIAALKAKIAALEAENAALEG

[18] = target: T18, 4H605-AA; conditions: mean of both orientations
T18 chain: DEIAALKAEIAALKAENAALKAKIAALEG

[19] = target: T19, 4H3112-AA; conditions: mean of both orientations
T19 chain: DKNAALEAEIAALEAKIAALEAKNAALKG

[20] = target: T20, 4H881-AA
T20 chain: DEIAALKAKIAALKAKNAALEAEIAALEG

[21] = target: T21, 4H2575-AA
T21 chain: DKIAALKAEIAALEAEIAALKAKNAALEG

[22] = target: T22, 4H317-AA; conditions: mean of both orientations
T22 chain: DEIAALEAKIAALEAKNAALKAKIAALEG

[23] = target: T23, 4H2729-AA; conditions: mean of both orientations
T23 chain: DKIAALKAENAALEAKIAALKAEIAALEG

[24] = target: T24, 4H429-AA; conditions: mean of both orientations
T24 chain: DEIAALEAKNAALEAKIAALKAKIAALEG

[25] = target: T25, 4H780-AA; conditions: mean of both orientations
T25 chain: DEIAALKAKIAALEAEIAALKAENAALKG

[26] = target: T26, 4H717-AA; conditions: mean of both orientations
T26 chain: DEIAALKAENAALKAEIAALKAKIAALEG

[27] = target: T27, 4H2837-AA; conditions: mean of both orientations
T27 chain: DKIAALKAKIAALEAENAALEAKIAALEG

[28] = target: T28, 4H3627-AA; conditions: mean of both orientations
T28 chain: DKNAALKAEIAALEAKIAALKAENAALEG

[29] = target: T29, 4H342-AA; conditions: mean of both orientations
T29 chain: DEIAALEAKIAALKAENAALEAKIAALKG

[30] = target: T30, 4H3697-AA; conditions: mean of both orientations
T30 chain: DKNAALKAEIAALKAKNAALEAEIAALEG

[31] = target: T31, 4H3165-AA; conditions: mean of both orientations
T31 chain: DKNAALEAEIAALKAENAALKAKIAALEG

[32] = target: T32, 4H3865-AA; conditions: mean of both orientations
T32 chain: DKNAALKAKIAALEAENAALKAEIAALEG

[33] = target: T33, 4H3009-AA; conditions: mean of both orientations
T33 chain: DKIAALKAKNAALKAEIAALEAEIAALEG

[34] = target: T34, 4H2649-AA; conditions: mean of both orientations
T34 chain: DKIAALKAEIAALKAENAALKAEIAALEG

[35] = target: T35, 4H745-AA; conditions: mean of both orientations
T35 chain: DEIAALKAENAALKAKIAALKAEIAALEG

[36] = target: T36, 4H797-AA; conditions: mean of both orientations
T36 chain: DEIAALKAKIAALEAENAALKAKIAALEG

[37] = target: T37, 4H3753-AA; conditions: mean of both orientations
T37 chain: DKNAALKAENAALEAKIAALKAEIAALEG

[38] = target: T38, 4H458-AA; conditions: mean of both orientations
T38 chain: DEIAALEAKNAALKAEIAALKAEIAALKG

[39] = target: T39, 4H930-AA; conditions: mean of both orientations
T39 chain: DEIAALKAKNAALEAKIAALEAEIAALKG

[40] = target: T40, 4H485-AA; conditions: mean of both orientations
T40 chain: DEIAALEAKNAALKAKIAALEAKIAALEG

[41] = target: T41, 4H3130-AA; conditions: mean of both orientations
T41 chain: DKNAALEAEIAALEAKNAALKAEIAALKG

[42] = target: T42, 4H909-AA; conditions: mean of both orientations
T42 chain: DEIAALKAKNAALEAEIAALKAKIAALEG

[43] = target: T43, 4H3590-AA; conditions: mean of both orientations
T43 chain: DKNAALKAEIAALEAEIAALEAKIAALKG

[44] = target: T44, 4H2473-AA
T44 chain: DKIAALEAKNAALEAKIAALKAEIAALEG

[45] = target: T45, 4H570-AA; conditions: mean of both orientations
T45 chain: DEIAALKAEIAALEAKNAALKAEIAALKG

[46] = target: T46, 4H710-AA; conditions: mean of both orientations
T46 chain: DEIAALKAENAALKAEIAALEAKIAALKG

[47] = target: T47, 4H629-AA; conditions: mean of both orientations
T47 chain: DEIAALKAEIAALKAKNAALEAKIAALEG

[48] = target: T48, 4H2865-AA; conditions: mean of both orientations
T48 chain: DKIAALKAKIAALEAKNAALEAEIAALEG

[49] = target: T49, 4H891-AA; conditions: mean of both orientations
T49 chain: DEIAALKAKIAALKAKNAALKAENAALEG

[50] = target: T50, 4H3410-AA; conditions: mean of both orientations
T50 chain: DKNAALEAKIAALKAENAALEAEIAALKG

[51] = target: T51, 4H3395-AA; conditions: mean of both orientations
T51 chain: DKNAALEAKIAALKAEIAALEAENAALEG

[52] = target: T52, 4H94-AA; conditions: mean of both orientations
T52 chain: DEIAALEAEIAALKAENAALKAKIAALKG

[53] = target: T53, 4H850-AA; conditions: mean of both orientations
T53 chain: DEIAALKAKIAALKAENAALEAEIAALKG

[54] = target: T54, 4H536-AA; conditions: mean of both orientations
T54 chain: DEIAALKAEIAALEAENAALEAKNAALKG

[55] = target: T55, 4H3120-AA; conditions: mean of both orientations
T55 chain: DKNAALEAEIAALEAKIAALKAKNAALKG

[56] = target: T56, 4H310-AA; conditions: mean of both orientations
T56 chain: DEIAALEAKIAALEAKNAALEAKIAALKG

[57] = target: T57, 4H3016-AA; conditions: mean of both orientations
T57 chain: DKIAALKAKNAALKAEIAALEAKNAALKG

[58] = target: T58, 4H3381-AA; conditions: mean of both orientations
T58 chain: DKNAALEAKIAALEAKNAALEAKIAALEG

[59] = target: T59, 4H2725-AA; conditions: mean of both orientations
T59 chain: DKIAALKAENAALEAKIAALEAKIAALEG

[60] = target: T60, 4H2698-AA; conditions: mean of both orientations
T60 chain: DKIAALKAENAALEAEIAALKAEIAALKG

[61] = target: T61, APC5009-AA; conditions: mean of both orientations
T61 chain: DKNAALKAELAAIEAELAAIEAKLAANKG

[62] = target: T62, APC9291-AA; conditions: mean of both orientations
T62 chain: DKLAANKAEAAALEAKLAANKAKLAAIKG

[63] = target: T63, APC9182-AA; conditions: mean of both orientations
T63 chain: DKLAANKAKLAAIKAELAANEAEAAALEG

[64] = target: T64, APC6088-AA; conditions: mean of both orientations
T64 chain: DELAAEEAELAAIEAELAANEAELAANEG

[65] = target: T65, APC5531-AA; conditions: mean of both orientations
T65 chain: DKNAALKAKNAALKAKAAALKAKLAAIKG

[66] = target: T66, APC8401-AA; conditions: mean of both orientations
T66 chain: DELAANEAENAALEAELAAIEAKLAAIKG

[67] = target: T67, APC4336-AA
T67 chain: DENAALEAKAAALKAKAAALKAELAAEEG

[68] = target: T68, APC8516-AA; conditions: mean of both orientations
T68 chain: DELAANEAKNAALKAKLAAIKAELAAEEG

[69] = target: T69, APC542-AA; conditions: mean of both orientations
T69 chain: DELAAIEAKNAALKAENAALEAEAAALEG

[70] = target: T70, APC7524-AA; conditions: mean of both orientations
T70 chain: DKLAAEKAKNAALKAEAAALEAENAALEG

[71] = target: T71, APC9141-AA; conditions: mean of both orientations
T71 chain: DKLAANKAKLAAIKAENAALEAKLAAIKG

[72] = target: T72, APC9806-AA; conditions: mean of both orientations
T72 chain: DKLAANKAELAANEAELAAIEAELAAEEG

interaction score [1]: -1.21
interaction score [2]: 1.88
interaction score [3]: -1.28
interaction score [4]: 1.03
interaction score [5]: -1.27
interaction score [6]: -0.532
interaction score [7]: 0.75
interaction score [8]: -1.56
interaction score [9]: -0.15
interaction score [10]: -1.45
interaction score [11]: -0.0872
interaction score [12]: -0.968
interaction score [13]: -0.954
interaction score [14]: -0.604
interaction score [15]: -1.2
interaction score [16]: -0.814
interaction score [17]: 0.849
interaction score [18]: -1.27
interaction score [19]: -0.383
interaction score [20]: -0.902
interaction score [21]: 1.9
interaction score [22]: 0.149
interaction score [23]: 0.467
interaction score [24]: -0.196
interaction score [25]: 0.14
interaction score [26]: -1.25
interaction score [27]: -1.05
interaction score [28]: 0.318
interaction score [29]: 1.14
Binder: DKIAALKAEIAALEAEIAALKAKNAALEG [4H2575-AA]

interaction score [30]: -1.54
interaction score [31]: -1.43
interaction score [32]: -0.611
interaction score [33]: 2.07
interaction score [34]: -0.843
interaction score [35]: -1.45
interaction score [36]: -1.58
interaction score [37]: -0.919
interaction score [38]: 1.39
interaction score [39]: -0.124
interaction score [40]: 0.85
interaction score [41]: -0.173
interaction score [42]: 0.0276
interaction score [43]: 1.18
interaction score [44]: 1.2
interaction score [45]: 1.26
interaction score [46]: 0.747
interaction score [47]: -1.34
interaction score [48]: -0.67
interaction score [49]: -1.65
interaction score [50]: -0.429
interaction score [51]: -1.43
interaction score [52]: -0.873
interaction score [53]: -0.625
interaction score [54]: -1.67
interaction score [55]: -0.0619
interaction score [56]: -0.305
interaction score [57]: 1.52
interaction score [58]: -1.15
interaction score [59]: 0.607
interaction score [60]: 1.68
Binder: DKIAALEAKNAALEAKIAALKAEIAALEG [4H2473-AA]

interaction score [61]: 1.2
interaction score [62]: -2.36
interaction score [63]: -1.89
interaction score [64]: -1.93
interaction score [65]: -2.38
interaction score [66]: -1.59
interaction score [67]: -3.13
interaction score [68]: -1.7
interaction score [69]: -2.08
interaction score [70]: -1.86
interaction score [71]: -2.48
interaction score [72]: -1.53
Binder: DENAALEAKAAALKAKAAALKAELAAEEG [APC4336-AA]
